± gives the uncertainty stated by the source.

In the supplement of paper PMC12042874 one finds amyloid nucleation score data, which are given here for 140 substances.

This data set is described as follows: amyloid nucleation score (Sup35N fusion, yeast selection) (log enrichment); library NNK2; higher = more nucleation; inactive = no reads after selection. The procedure, abridged:
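Using DiMSum, nucleation scores were taken as the log enrichment of output over input reads, centred on the mode score of non-aggregating sequences. The input and output reads came from Illumina sequencing of plasmid inserts, with sequences under 100 input reads excluded. The yeast were psi-negative, expressed Sup35N fused to peptides of 20 random codons, were induced with 100 μM copper sulfate for 24 hours, and were grown 7 days at 30°C on medium lacking adenine and uracil.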
In turn, LRYVVNPF came in with an amyloid nucleation score of -0.979 ± 0.37. LSASW: the amyloid nucleation score is 1.44 ± 0.38. Consider LSILCGDCSDGRS, for which the amyloid nucleation score is -0.245 ± 0.2. For LSLLVSLTRTMFNLNNTCTA, the amyloid nucleation score is -0.17 ± 0.65. The substance LSMERSVGFYDTVTLWLQRK gave an amyloid nucleation score of 5.9 ± 0.056.

For the substance LSNAYRTGFPLICSLNNHRH, the amyloid nucleation score was 1.03 ± 0.68.

The substance LSNLEAEAWMRAYCIRVKIT registered an amyloid nucleation score of 2.16 ± 0.1. Then LSNYARGRVDVTLKNYLLLE, with 0.476 ± 0.51.

As for LSPLIAAHSTERVYWY, the amyloid nucleation score is 0.262 ± 0.46.

Take LSPPYYYHMNCLPYNMSIWP: the amyloid nucleation score worked out at 2.39 ± 0.09. Then LSPYYSLCVSGSTWSAVQPL, with 0.476 ± 0.51.

LSRESTCIFSMNKDVFS: the amyloid nucleation score was determined as 0.016 ± 1.1. Then LSRIRVHSIRLYSVFPVMFC, with 3.67 ± 0.072; and LSRLNFGIFDKVTAATGLMK, with -1.26 ± 0.78. The substance LSRQFRRYLMLSLFYFVLLP returned an amyloid nucleation score of -1.21 ± 0.38. The same measure for LSSHVCGGM: 4.8 ± 0.054. The same measure for LSTANSNSRAVFIIKMRGLL: “inactive”; for LSYLHG: -0.913 ± 0.63.

For LSYRRFFRLILKGAVG, the amyloid nucleation score result is “inactive”.

LSYVWYTQIARPGNSGFNLL had an amyloid nucleation score of 2.12 ± 0.14. With LTCSKSPIWWAIIFVGYFTN, the amyloid nucleation score amounted to 0.022 ± 0.62. As to LTIRGKVTSTVAMLLDFLDS, the amyloid nucleation score was found to be 5.86 ± 0.062. Regarding LTIVWLVVVYGLWGVSTFSL, the amyloid nucleation score result is “inactive”. Then LTLHICRAAVYSYGTLS, with 1.63 ± 0.12; and LTLIVNPLVNSPPGPQASLT, with 0.735 ± 0.23; and LTLLHFRREDTHCSGTGTPC, with 1 ± 0.2. The same measure for LTRMKT: -0.311 ± 0.63. Then LTSFGDEC, with -0.153 ± 1.1. The substance LTSNPVPSNLT yielded an amyloid nucleation score of 3.35 ± 0.076. The same measure for LTSSA: -0.315 ± 0.49. The same measure for LTTVGHSVKLSWRVLSG: 1.9 ± 0.18; for LTVDCQDSLLYWHRMMSRPL: 0.853 ± 0.31. Regarding LTYRVCHEVQGQRYCMAREH, the amyloid nucleation score is 0.174 ± 0.74. Take LTYYLSYCHYRRTYLAGLLQ: the amyloid nucleation score is -0.249 ± 0.2.

LVEFSSRFQLGFTGSVNS returned an amyloid nucleation score of 1.21 ± 0.16. With LVFHRVTWLTDNMQWKGTPG, the amyloid nucleation score came out at 3.2 ± 0.078. The same measure for LVFKAPRTITSPCCYGSNWS: 0.504 ± 0.36; for LVFMAFC: 4.839 ± 0.04; for LVGHYSDRDYVEYARRDCAG: 0.252 ± 0.8. The same measure for LVGVPNYVRMHYARLSLTAL: “inactive”; for LVHSLDFL: -0.389 ± 0.61.

As for LVISM, the amyloid nucleation score amounted to 0.348 ± 0.46. The same measure for LVKKWVWLLCCYRISWGRLR: -0.346 ± 0.28.

For the substance LVKLEKHRLKVVNDYNSFEG, the amyloid nucleation score entry is “inactive”. The same measure for LVKLEYALSVFRENSGSNLN: 1.07 ± 0.3; for LVLAGSYDRCLPSCVVMRKG: 0.461 ± 0.64; for LVLLKGYKRSNNGKQCYAGL: 0.365 ± 0.66. For LVLPYSGTHAGLRVWCGSSV, the amyloid nucleation score was found to be 0.696 ± 0.34. Then LVNFSSLIV, with -2.07 ± 1.1; and LVQCLLYSLWCQALSQPMYV, with -0.753 ± 1; and LVRHFIHGSTA, with -1.23 ± 0.49. Regarding LVRMIYTYSVRSDSVSFKSF, the amyloid nucleation score was -0.132 ± 0.38. Take LVSMLVFL: the amyloid nucleation score was found to be 2.15 ± 0.15.

The substance LVTLRKMDPSPRRVIFNVCN returned an amyloid nucleation score of 0.935 ± 0.39. Then LVVLWK, with 6.01 ± 0.061. Then LVWRDV, with 0.729 ± 0.51; and LVYESSDYFVNIIEDNLLVS, with “inactive”. Then LVYTPCLILGDELAVTGVKR, with -0.337 ± 0.23; and LWAYPLSMLWGKLFMDGMLL, with -0.486 ± 0.27; and LWCPVHRAYGYAIHSVKGAH, with 1.04 ± 0.34. The substance LWFLS yielded an amyloid nucleation score of 0.393 ± 0.33. With LWNWRACARLG, the amyloid nucleation score stood at 1.25 ± 0.24. On to LWREYLVHGSP, for which the amyloid nucleation score was 0.329 ± 0.5. LWVVQTVDHTSKSSSVWSSL registered an amyloid nucleation score of 4.16 ± 0.078. Then LYCDECISWYAHDWLNI, with 0.409 ± 0.45; and LYCIVQGKSSGIHQRATFCF, with “inactive”; and LYDWRWSWSRSATSSFGWLT, with 0.296 ± 0.49. Substance LYETSMNDPMRVHHLRCEFI had an amyloid nucleation score of -0.254 ± 0.56. In the case of LYFDVTQ, the amyloid nucleation score was -0.611 ± 0.32. Substance LYGHSVNMVV registered an amyloid nucleation score of -0.224 ± 0.39. Then LYGIVITTLSSYCGGFLNSR, with “inactive”; and LYGMF, with -0.261 ± 0.63; and LYIDIRRSCLVCNGMSWRAG, with 5.865 ± 0.052. Then LYIYLNYFNTAVTFYGCVCS, with 3.94 ± 0.052; and LYKVYVFYNNNVVMVRLALK, with “inactive”; and LYLTYKVVHTSTPPVASYCE, with 5.855 ± 0.033.

As to LYQMCIRLI, the amyloid nucleation score is -0.657 ± 0.55. The same measure for LYQWSGLIKSVLNSGCGKVE: 0.315 ± 0.54; for LYRFAMLLRLGARSVNMLGK: -0.573 ± 1.1; for LYRFSNST: -0.968 ± 0.29. The same measure for LYSMSHCWHVQCWEFDSYVG: -0.174 ± 0.23; for LYSTRRCHVRELVPLLGARS: 0.362 ± 0.25; for LYTRMPMYGHSEKFLVCESS: -0.486 ± 0.27. As to LYVNLRCRNYYVAVPVGDWD, the amyloid nucleation score turned out to be 4.9 ± 0.068. LYYVMSPWLITSRAWDGSSS registered an amyloid nucleation score of 0.778 ± 0.67. With MAELLHKYGYKDAVRNIHPY, the amyloid nucleation score turned out to be 0.641 ± 0.62.

In the case of MAGVTPLELLCGPNQFALMR, the amyloid nucleation score worked out at 1.95 ± 0.48. In the case of MAKIFFPNRQVIPPTRMQRV, the amyloid nucleation score was found to be 1.12 ± 0.47. The same measure for MCCGISMVFGDCSQVSVLIR: 8.847 ± 0.047; for MCCPRSNFGYPFHVNLDMWG: -0.186 ± 0.55. Turning to MCDIVHY, the amyloid nucleation score was -0.446 ± 0.79.

MCEYLWCMGACNQASLTYLS: the amyloid nucleation score is 5.787 ± 0.032. As for MCSMCIVLPPVCVLKAKVYT, the amyloid nucleation score was 3.69 ± 0.081. MCTGVPINGFWVCPYDQSGK came in with an amyloid nucleation score of 0.108 ± 0.33. The same measure for MCWVANNVTNPVEVEYERSL: -0.821 ± 1.1; for MDAYRCWAQMYRTYMLMCLV: 0.039 ± 0.27; for MDGNDYAVVR: 0.861 ± 0.23. The substance MDKFFFSFTYGGLSQPDQGV returned an amyloid nucleation score of -1.35 ± 1.1. The same measure for MDLMGCLYYPDT: 1.05 ± 0.35; for MDLRWKSSGRKVNLNRLIQR: 4.647 ± 0.036; for MDPYYRKICSCDVGVNYRFL: “inactive”. With MDWVQGAFMPRGSGHWHN, the amyloid nucleation score was -0.327 ± 0.79. Turning to MDYWVFMPFQLHRLCCYTPL, the amyloid nucleation score is -0.303 ± 0.24.

In turn, MEGVAK gave an amyloid nucleation score of 0.331 ± 0.8. In the case of MEKVHV, the amyloid nucleation score was found to be 1.65 ± 0.48. The substance MENGHCYFCQCTKSH gave an amyloid nucleation score of 2.85 ± 0.1. The same measure for MEPNYGVRGVMYNFVMPRWM: 7.251 ± 0.047; for MFGGLGTDSLA: -0.46 ± 1; for MFILGAHGKFGSTTMGVLAC: -1.64 ± 0.62. The same measure for MFRSVRFVCWSRLIDNRYMQ: -0.18 ± 0.34; for MFSESE: -0.275 ± 0.35; for MFSIYLLSCPLYISMNWSCR: 0.183 ± 1. Then MFSRIWPSSDL, with -0.324 ± 1.1. With MFSYTVSVLDLIYKSIWECE, the amyloid nucleation score was -0.941 ± 0.35. The substance MFWRSYNWDFSCYCNCSRGR showed an amyloid nucleation score of 5.054 ± 0.033. The substance MGFLLRLCTYRCVVVIWGSI had an amyloid nucleation score of -1.08 ± 0.43.

MGLWLDYDTHCYQNVVFKRT registered an amyloid nucleation score of 2.41 ± 0.091.

As to MGRGPESQHFVCCHRRAWL, the amyloid nucleation score was determined as 1.15 ± 0.3.

Regarding MGTHKTDGRRQYLVVSSCEV, the amyloid nucleation score amounted to 0.115 ± 1.

MHRSCGEIACTKKVAIEMKD yielded an amyloid nucleation score of 1.34 ± 0.18. For MHSFHTICLLLMWRESRIAV, the amyloid nucleation score was 0.45 ± 0.39. The substance MIEKVQFQCLVIICRNGVV yielded an amyloid nucleation score of 6.565 ± 0.052. Then MIERMSNRGMACLFVETRSG, with -0.149 ± 0.76; and MIFYDAIGWKLGNRGSN, with -0.728 ± 0.45. Then MIGNQNQGVCW, with 0.141 ± 0.29. Then MIGVYDGLRHNVEQGFVWCE, with 0.419 ± 0.51; and MIQEVLWLVSS, with 0.043 ± 0.49; and MISRCDWFWSKLKTSL, with 2.29 ± 0.06.

Consider MIVLIQKGLWGFDLQAVFVP, for which the amyloid nucleation score was -0.653 ± 1.1.

Take MIVVCVRLYQGRYGRMPDYE: the amyloid nucleation score is -0.16 ± 0.37.

For the substance MKCDIFGGLSDN, the amyloid nucleation score turned out to be 0.698 ± 0.62.

MKGFELSLLVMRHSLELYRI: the amyloid nucleation score was 0.463 ± 0.65.

MKRVGKFVGLGGRHVVHSRV displayed an amyloid nucleation score of 0.434 ± 0.33. MKTSLYRRGNPRLYREKSRK showed an amyloid nucleation score of 1.01 ± 0.27. Substance MLDLIRLNDVICSQKFH had an amyloid nucleation score of 0.48 ± 0.64. On to MLDLNQFLCRGFKLTRPYGL, for which the amyloid nucleation score is -0.155 ± 0.54. The same measure for MLECVSALGKLGWFIQPVCL: -0.32 ± 0.55; for MLERHKDRTRSGLKRGARET: 0.84 ± 0.46; for MLFSNVLLCKLCIFA: 6.96 ± 0.055. As for MLGHSWHF, the amyloid nucleation score result is “inactive”.
